Assay results from FireProtDB (doi:10.1016/0022-2836(91)90566-o).

B1: DNA-Binding protein, P69542 (parent)
chain: MIKVEIKPSQAQFTTRSGVSRQGKPYSLNEQLCYVDLGNEYPVLVKITLDEGQPAYAPGLYTVHLSSFKVGQFGSLMIDRLRLVPAK

Variants of: B1
Conditions: Enterobacteria phage fd; pH 7; 25 °C; GdnHCl; CD; MOPS 50 mM; NaCl 100 mM; reversible: yes; structure 1VQB; whole UniProt chain shown

| Variant | ddG of mutation (higher = less stable) [kcal/mol] | denaturant m value [kcal/mol/M] | denaturant midpoint (higher = more stable) [M] | unfolding free energy [kcal/mol] |
| --- | --- | --- | --- | --- |
| V70C | 3.1 | 4.4 | 1.7 | 5.9 |
| V70P | 5 | 4.4 | 1.3 | 4 |
| D50H | 1.5 | 3.8 | 2.1 | 7.5 |
| I47T | 7.4 | 4.9 | 0.9 | 1.6 |
| C33S | 4.2 | 4 | 1.4 | 4.8 |
| D36C | 2 | 3.5 | 2 | 7 |
| D36N | 1 | 4.2 | 2.2 | 8 |
| E30M | -0.7 | 3.7 | 2.78 | 9.7 |
| K69M | -0.2 | 3.1 | 2.7 | 9.2 |
| F68L | 4.2 | 3.4 | 1.4 | 4.8 |
